This is an account of results in paper PMC2918618, “Characterization of the TnsD-attTn7 complex that promotes site-specific insertion of Tn7” (Mobile DNA, 2010).

Assay in all cases: EMSA; Gel-shift buffer not given (as described in ref. 6); TnsD stored in 500 mM KCl, 50 mM Tris-HCl pH 8.0, 1 mM EDTA, 2 mM DTT, 25% glycerol
What all share (settings): protein: recombinant; tags: intein-chitin tag, cleaved with DTT
(Mobility shift assays separate free from complexed probe on a gel.)

One series addresses T1, TnsD M96I (Escherichia coli (transposon Tn7), UniProt P13991 1-508, M96I).
T1 sequence: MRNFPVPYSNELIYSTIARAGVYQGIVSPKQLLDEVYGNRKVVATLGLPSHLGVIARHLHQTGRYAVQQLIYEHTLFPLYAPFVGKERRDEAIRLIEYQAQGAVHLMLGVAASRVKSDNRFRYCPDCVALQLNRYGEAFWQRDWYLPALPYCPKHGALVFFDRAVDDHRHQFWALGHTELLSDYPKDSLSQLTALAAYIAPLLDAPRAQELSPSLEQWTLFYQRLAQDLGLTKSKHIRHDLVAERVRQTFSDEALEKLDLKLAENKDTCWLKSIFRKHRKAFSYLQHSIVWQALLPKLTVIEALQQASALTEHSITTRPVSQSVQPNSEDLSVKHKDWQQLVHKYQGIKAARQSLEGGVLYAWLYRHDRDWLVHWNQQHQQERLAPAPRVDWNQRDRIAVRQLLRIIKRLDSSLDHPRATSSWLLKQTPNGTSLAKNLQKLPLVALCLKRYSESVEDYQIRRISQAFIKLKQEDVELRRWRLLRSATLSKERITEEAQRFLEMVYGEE

In the next series the target is T2, TnsD P417L (Escherichia coli (transposon Tn7), UniProt P13991 1-508, P417L).
T2 sequence: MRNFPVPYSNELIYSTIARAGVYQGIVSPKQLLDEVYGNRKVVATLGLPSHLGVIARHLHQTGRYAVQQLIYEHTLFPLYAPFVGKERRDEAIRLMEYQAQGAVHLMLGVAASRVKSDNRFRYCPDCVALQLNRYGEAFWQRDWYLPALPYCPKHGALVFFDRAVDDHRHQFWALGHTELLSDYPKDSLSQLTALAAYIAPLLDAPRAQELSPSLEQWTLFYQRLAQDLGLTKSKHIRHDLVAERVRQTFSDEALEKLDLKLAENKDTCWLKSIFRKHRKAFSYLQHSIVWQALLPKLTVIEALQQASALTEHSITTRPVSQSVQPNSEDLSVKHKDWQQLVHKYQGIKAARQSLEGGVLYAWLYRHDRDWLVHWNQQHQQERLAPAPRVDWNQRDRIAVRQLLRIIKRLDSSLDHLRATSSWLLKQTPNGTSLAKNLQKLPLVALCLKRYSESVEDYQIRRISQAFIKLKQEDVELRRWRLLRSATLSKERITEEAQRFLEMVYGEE

Another series addresses T3, TnsD A497I (Escherichia coli (transposon Tn7), UniProt P13991 1-508, A497I).
T3 sequence: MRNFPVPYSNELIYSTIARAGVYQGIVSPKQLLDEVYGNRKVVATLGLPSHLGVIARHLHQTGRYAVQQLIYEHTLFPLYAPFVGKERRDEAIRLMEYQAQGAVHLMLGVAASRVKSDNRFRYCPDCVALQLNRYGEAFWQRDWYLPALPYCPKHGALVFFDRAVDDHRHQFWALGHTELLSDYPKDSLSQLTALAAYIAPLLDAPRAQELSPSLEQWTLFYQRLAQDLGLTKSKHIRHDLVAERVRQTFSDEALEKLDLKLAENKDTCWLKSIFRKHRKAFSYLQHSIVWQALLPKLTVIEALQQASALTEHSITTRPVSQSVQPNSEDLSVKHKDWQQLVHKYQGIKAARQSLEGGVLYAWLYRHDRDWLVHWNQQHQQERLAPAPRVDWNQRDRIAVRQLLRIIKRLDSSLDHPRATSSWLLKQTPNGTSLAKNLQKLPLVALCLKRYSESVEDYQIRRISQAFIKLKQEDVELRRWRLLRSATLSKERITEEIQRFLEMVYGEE

In the next series the target is T4, TnsD P147L (Escherichia coli (transposon Tn7), UniProt P13991 1-508, P147L).
T4 sequence: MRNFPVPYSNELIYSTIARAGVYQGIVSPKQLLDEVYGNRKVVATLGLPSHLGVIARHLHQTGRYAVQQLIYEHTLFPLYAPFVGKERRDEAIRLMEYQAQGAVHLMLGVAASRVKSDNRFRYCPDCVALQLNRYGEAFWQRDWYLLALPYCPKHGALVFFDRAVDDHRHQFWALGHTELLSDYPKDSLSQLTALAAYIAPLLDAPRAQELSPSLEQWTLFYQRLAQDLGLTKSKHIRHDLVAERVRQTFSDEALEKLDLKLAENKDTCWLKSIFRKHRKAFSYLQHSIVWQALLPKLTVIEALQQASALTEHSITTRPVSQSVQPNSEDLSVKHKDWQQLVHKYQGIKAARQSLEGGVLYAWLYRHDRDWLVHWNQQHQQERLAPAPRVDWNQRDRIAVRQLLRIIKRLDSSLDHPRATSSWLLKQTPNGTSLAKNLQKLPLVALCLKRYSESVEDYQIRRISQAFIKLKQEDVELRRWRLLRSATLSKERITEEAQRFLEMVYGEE

B1: attTn7 wt (+23 to +58) (dsDNA)
DNA 1: CCGCGTAACCTGGCAAAATCGGTTACGGTTGAGTAA
DNA 2: TTACTCAACCGTAACCGATTTTGCCAGGTTACGCGG
Consider B1, for which the binding signal in the series with TnsD M96I was 0.3 relative to wt; with TnsD P417L it was 0.07 relative to wt; with TnsD A497I, 0.05 relative to wt; with TnsD P147L it was 0.07 relative to wt.
